Experimental data as given in paper PMC4335783, “A novel psychrophilic alkaline phosphatase from the metagenome of tidal flat sediments” (BMC Biotechnology, 2015).

System: T1, O=[N+]([O-])c1ccc(OP(=O)(O)O)cc1
T1 construct: printed as 527 residues, 56 kDa; C-terminal factor Xa site and His6 tag; E. coli BL21(DE3) periplasm; monomer
Test: purified protein
Format: biochemical, uncultured bacterium
Conditions: 37 °C, pH 9.0, 50 mM DEA, 0.5 mM CaCl2

Substance: mAP (metagenome-derived alkaline phosphatase) (uncultured bacterium)
- Km: 180 µM
- kcat: 952 s⁻¹
- kcat/Km: 5.3e+06 M⁻¹ s⁻¹
